From paper doi:10.1101/2023.05.30.542861 (bioRxiv, 2023)

Target: the molecule itself
Experiment: cross-linking

B1: L-Glutamate dehydrogenase from bovine liver (enzyme)
chain: not shown
stoichiometry N: 6
